The supplement of paper PMC10567573

B1: PTPLAD1 (parent)
chain: YINFRHLYKQRRRRYGQKKKKIH
B2: SCNN1D (parent)
chain: RRPSPVLRHLELLDEFARENIDSL

Variants of: B1
Assay: protein stability index of a GFP-peptide fusion (GPS, HEK-293T) (PSI 1-6); higher = more stable
Settings: c terminus: native
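Further: lentivirally expressed fusions sorted by FACS into six bins by GFP to DsRed ratio, PSI derived from sequencing read proportions per bin multiplied by bin number.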

Protein stability index, by site and new letter:
R5: Y 2.37 | Q 2.3 | W 1.55 | C 1.45 | S 1.17 | G 1.38 | N 1.57 | P 2.49 | T 2.38 | D 2.02 | E 3.34 | A 2.93 | I 1.53 | L 1.79 | K 2.51 | M 1.59 | H 1.8 | F 2.14
F4: P 1.64 | N 2.29 | W 1.1 | M 1.74 | K 3.29 | I 2.43 | Y 1.99 | T 2.01 | L 2.87 | E 3.23 | R 2.96 | S 3.2 | H 3.71 | C 2.03 | G 1.9 | Q 2.77 | D 3.02
I2: C 2.2 | A 2.7 | N 3.6 | L 3.44 | Q 3.45 | H 1.29 | F 3.06 | P 2.9 | K 2.27 | R 2.05 | D 3.45 | S 2.53 | M 2 | V 1.97 | Y 2.1 | G 2.19
L7: A 2.01 | I 1.94 | M 2.31 | F 1.41 | E 2.79 | D 3.07 | G 2.68 | H 2.31 | N 2.72
Y1: K 1.94 | E 2.5 | P 1.93 | L 1.79 | V 2.1 | W 2.96 | T 2.25 | G 2.01 | N 2.97 | S 3.15 | I 1.17 | A 2.93 | H 2.9 | D 3.48 | R 1.35 | Q 2.24 | C 1.59
H6: G 1.75 | S 1.84 | L 2.3 | E 1.73 | F 1.54 | A 1.81 | K 2.44 | C 2.14 | T 2.02 | V 2.06 | W 1.75 | P 1.7 | M 1.75 | Y 1.88
N3: C 1.57 | P 2.09 | Y 1.71 | A 1.9 | E 1.61 | R 4.4 | D 2.39 | W 1.37 | T 2.31 | Q 1.29 | F 2.51 | L 2.72 | H 2.52 | S 2.68 | V 1.61 | I 1.58 | K 1.97

Variants of: B2
Assay: as above
Settings: c terminus: a fixed tail appended

Protein stability index of substitutions, site by site:
S23: I 2.26 | Y 2.46 | R 3.44 | P 2.99 | G 3.33 | C 2.5 | E 2.92 | W 1.32 | A 2.07 | H 2.7 | F 1.74 | V 2.45 | N 2.94 | K 3.56 | Q 2.27 | T 2.74 | L 2.72 | M 2.56 | D 2.57
I21: R 2.96 | P 4.41 | K 3.36 | N 2.81 | M 2.89 | T 2.98 | L 2.95 | D 3.36 | V 2.87 | G 3.38 | H 3.61 | F 2.74 | S 3.85 | Y 2.34 | A 3.04 | C 2.43 | W 1.87 | Q 3.59 | E 3.27
L13: S 4.26 | R 3.6 | I 3.73 | D 4.57 | K 3.9 | V 3.6 | P 4.21 | Y 3.19 | G 4.23 | M 3.59 | Q 3.78 | H 4.31 | F 3.14 | E 4.48 | N 4.16 | T 4.13 | W 3.19
E19: M 2.88 | P 2.72 | G 3.88 | F 2.46 | I 2.5 | R 2.61 | N 2.89 | H 2.5 | V 2.88 | D 2.73 | C 2.66 | T 3.16 | Q 2.68 | K 2.74 | L 2.52 | A 3.18 | S 2.74 | W 1.82 | Y 2.39
F16: A 2.61 | L 3.36 | C 3.61 | M 2.25 | S 4.57 | Y 3.09 | E 3.63 | T 4.21 | V 3.95 | G 4.12 | K 3.91 | N 3.88 | I 2.84 | Q 3.14 | W 2.64 | H 3.77 | P 3.72 | R 4.28 | D 4.61
D22: T 2.18 | G 2.41 | H 2.87 | Q 2.47 | W 1.68 | M 1.47 | S 2.42 | A 2.97 | P 2.22 | E 2.99 | V 2.03 | K 2.97 | C 1.7 | Y 1.8 | F 1.57 | R 2.76 | N 3.12 | I 2.15 | L 1.55
L24: E 3.25 | M 2.4 | T 3.3 | I 2.46 | D 3.15 | K 3.29 | N 3.29 | C 2.73 | H 2.88 | G 3.06 | S 3.04 | W 2.06 | Y 2.55 | R 3.17 | F 2.07 | Q 3.23 | P 3.19 | A 3.52 | V 2.67
A17: E 4.18 | M 2.92 | Y 2.9 | N 4.14 | V 2.94 | K 3.98 | C 3.38 | R 2.94 | Q 3.16 | H 3.74 | G 3.72 | P 3.48 | D 4.43 | T 3.62 | S 4.37 | F 2.24 | W 3.03 | I 2.46 | L 3.07
R18: F 3 | A 2.37 | I 2.44 | E 3.12 | K 3.67 | L 2.43 | S 3.26 | V 2.35 | T 3.16 | H 3.17 | M 2.98 | Y 2.7 | G 3.6 | P 4.25 | C 2.48 | N 2.42 | D 3.44 | Q 2.84 | W 1.73
D14: P 2.92 | Q 2.94 | I 1.78 | G 2.83 | H 2.5 | R 2.27 | S 2.16 | A 1.67 | Y 2 | N 2.74 | L 2.86 | M 2.6 | F 1.42 | C 1.59 | V 1.37 | K 1.8 | E 2.56 | W 1.44 | T 2.21
N20: T 1.93 | Y 2.07 | F 2.52 | M 1.77 | I 1.74 | Q 2.08 | A 2.35 | L 2.17 | P 3.04 | S 2.36 | H 1.85 | R 2.72 | C 2.33 | K 3.34 | D 3.65 | E 1.88 | V 2.54 | W 2.85 | G 2.88
E15: N 3.41 | Y 1.83 | T 2.92 | Q 2.95 | H 2.92 | A 2.97 | I 2.72 | R 2.72 | L 1.76 | F 2.03 | G 3.34 | V 2.29 | S 3.27 | M 2.18 | K 2.82 | D 3.21 | C 2.94 | W 2.05 | P 3.02
